Assay in all cases: Kinase profiling (radiometric filter-binding)
Common to all, as to format: biochemical

The target of data set [1] is MST3 (Homo sapiens, UniProt Q9Y6E0). Conditions: MST3, 1 µM inhibitor; read-out: Residual activity, %. The gist of the method: (§1)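 Each compound, at 1 µM final, is screened against human protein kinases in a radiometric filter-binding format. ATP is set at or under the KM of each kinase. Values give retained activity relative to a control lacking inhibitor.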
The target in data set [2] is JNK3 (Homo sapiens, UniProt P53779). The following applies: JNK3, 1 µM inhibitor; read-out: Residual activity, %. The gist of the method:
as §1

Data set [3] deals with HIPK3 (Homo sapiens, UniProt Q9H422). Conditions: HIPK3, 1 µM inhibitor; read-out: Residual activity, %. The gist of the method:
as §1

In data set [4] the target is T1, ASK1 (Homo sapiens, UniProt Q99683).
T1 sequence (Q99683 1-1374): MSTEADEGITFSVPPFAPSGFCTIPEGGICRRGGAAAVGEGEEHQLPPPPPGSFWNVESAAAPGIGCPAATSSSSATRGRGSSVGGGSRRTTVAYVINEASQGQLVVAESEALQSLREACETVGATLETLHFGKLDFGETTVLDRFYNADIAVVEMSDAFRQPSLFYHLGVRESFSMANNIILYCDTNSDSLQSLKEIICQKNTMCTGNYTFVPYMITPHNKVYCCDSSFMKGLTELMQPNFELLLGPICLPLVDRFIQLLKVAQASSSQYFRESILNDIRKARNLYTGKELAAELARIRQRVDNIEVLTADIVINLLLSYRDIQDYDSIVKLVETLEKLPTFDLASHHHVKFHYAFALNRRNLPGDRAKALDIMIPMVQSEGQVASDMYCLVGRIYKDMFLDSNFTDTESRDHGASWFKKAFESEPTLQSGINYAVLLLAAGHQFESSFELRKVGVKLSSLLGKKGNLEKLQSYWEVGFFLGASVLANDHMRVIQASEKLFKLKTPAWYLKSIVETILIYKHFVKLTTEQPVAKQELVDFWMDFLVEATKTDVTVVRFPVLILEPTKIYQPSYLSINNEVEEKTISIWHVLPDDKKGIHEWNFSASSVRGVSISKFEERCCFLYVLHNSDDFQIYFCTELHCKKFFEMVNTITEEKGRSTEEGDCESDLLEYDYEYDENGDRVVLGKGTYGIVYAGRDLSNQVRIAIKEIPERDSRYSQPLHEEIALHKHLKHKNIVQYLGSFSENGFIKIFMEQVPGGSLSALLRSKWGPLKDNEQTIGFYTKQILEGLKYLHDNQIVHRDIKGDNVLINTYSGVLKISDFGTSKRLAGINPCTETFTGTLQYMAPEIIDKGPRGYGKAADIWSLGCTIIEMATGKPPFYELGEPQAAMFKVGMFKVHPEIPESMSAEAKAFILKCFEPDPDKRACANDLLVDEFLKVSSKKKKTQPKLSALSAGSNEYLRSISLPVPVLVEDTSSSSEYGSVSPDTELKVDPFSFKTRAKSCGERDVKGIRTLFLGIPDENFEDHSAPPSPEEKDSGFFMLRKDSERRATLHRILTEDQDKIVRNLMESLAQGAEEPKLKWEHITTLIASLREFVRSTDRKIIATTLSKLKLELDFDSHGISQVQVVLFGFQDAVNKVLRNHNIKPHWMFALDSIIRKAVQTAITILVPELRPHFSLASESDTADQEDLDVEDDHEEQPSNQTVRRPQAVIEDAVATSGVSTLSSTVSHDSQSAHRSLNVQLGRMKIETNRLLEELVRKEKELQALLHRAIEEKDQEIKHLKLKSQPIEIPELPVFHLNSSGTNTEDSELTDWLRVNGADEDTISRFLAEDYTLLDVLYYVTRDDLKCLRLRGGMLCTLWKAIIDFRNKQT
The following applies: ASK1, 1 µM inhibitor; read-out: Residual activity, %. The gist of the method:
as §1

Data set [5] deals with CK2 (Homo sapiens, UniProt P68400). The following applies: CK2, 1 µM inhibitor; read-out: Residual activity, %. The gist of the method: as §1
CK2, sequence (P68400 whole entry): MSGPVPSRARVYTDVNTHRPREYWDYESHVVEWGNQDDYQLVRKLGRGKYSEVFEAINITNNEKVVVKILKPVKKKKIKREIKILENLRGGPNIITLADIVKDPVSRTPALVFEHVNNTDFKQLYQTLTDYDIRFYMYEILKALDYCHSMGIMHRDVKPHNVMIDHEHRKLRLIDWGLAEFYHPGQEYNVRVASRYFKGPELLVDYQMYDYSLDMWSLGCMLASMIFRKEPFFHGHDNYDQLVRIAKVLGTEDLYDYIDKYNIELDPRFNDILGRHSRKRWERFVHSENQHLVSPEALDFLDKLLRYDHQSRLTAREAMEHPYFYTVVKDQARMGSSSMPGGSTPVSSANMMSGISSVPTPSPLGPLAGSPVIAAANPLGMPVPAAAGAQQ
The target of data set [6] is MKK1 (Homo sapiens, UniProt Q02750). Conditions: MKK1, 1 µM inhibitor; read-out: Residual activity, %. The gist of the method:
as §1

Data set [7] concerns the target PLK1 (Homo sapiens, UniProt P53350). The following applies: PLK1, 1 µM inhibitor; read-out: Residual activity, %. The gist of the method: as §1
Data set [8] addresses PIM3 (Homo sapiens, UniProt Q86V86). Conditions: PIM3, 1 µM inhibitor; read-out: Residual activity, %. The gist of the method:
as §1

Data set [9] deals with PAK6 (Homo sapiens, UniProt Q9NQU5). Conditions: PAK6, 1 µM inhibitor; read-out: Residual activity, %. The gist of the method: as §1
PAK6, sequence (Q9NQU5 whole entry): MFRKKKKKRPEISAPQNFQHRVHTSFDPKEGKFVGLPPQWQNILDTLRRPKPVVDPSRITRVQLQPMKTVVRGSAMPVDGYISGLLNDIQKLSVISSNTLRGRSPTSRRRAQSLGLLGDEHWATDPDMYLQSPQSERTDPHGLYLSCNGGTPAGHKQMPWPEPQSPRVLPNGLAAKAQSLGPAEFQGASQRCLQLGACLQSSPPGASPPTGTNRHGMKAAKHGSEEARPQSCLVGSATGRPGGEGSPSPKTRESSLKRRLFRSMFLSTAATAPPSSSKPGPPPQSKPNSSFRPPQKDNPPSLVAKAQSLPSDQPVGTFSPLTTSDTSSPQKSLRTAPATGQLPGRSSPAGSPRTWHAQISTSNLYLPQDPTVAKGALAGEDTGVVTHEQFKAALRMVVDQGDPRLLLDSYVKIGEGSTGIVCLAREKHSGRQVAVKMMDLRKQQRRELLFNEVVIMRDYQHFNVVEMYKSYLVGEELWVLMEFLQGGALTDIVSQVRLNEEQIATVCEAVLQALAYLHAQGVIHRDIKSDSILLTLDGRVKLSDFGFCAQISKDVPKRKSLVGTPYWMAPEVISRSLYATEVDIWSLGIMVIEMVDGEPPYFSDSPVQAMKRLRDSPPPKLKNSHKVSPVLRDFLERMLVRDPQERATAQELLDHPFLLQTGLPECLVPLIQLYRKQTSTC

The results in this text go back to PMC8307404, “Crystal Structure-Guided Design of Bisubstrate Inhibitors and Photoluminescent Probes for Protein Kinases of the PIM Family” (Molecules, 2021).

Structures are written as SMILES. Square brackets hold non-standard residues; d marks the D form. Peptide text beside a SMILES is read from it. * marks the point of attachment. X3 = O=C(CCCCCNCc1nc2c(sc3cc(Br)cnc32)c(=O)[nH]1)*

PLK1, sequence (P53350 whole entry): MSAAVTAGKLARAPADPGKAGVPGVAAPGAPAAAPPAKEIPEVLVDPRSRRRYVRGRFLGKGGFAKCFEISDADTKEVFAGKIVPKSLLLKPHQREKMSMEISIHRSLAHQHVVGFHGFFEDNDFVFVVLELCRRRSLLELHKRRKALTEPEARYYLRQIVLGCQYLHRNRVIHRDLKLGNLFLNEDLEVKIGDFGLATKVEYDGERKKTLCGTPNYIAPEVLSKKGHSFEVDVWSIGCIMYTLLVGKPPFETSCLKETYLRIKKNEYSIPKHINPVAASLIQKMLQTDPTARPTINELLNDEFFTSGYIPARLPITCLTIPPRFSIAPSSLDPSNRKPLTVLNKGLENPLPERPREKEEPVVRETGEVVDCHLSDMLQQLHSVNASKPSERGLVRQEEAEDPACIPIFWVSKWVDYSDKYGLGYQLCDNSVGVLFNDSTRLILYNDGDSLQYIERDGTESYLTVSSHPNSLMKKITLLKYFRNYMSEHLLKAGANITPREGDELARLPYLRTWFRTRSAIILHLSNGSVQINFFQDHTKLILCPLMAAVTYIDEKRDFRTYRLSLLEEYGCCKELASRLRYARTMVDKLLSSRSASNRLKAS
MKK1, sequence (Q02750 whole entry): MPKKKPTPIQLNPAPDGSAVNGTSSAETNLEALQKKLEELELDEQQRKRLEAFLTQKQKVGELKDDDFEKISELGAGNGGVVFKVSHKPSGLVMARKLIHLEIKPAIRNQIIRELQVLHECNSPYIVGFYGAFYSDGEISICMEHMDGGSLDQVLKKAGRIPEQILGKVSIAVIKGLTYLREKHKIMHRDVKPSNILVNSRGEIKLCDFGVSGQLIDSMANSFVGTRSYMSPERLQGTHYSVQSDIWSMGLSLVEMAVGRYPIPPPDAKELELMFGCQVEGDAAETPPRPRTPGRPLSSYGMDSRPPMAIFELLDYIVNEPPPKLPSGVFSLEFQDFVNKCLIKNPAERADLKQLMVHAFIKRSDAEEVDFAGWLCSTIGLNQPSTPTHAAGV
JNK3, sequence (P53779 whole entry): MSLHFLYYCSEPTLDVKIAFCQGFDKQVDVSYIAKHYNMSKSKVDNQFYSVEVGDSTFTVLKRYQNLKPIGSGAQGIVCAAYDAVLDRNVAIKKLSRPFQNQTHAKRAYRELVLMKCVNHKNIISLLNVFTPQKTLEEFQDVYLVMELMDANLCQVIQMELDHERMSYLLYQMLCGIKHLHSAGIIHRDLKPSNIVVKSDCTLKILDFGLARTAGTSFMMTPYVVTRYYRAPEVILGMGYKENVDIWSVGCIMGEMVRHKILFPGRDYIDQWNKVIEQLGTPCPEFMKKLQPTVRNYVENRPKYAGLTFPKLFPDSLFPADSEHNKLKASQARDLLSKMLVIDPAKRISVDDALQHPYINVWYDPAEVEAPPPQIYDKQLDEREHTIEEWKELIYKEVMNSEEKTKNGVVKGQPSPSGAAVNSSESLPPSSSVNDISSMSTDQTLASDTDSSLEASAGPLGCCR
MST3, sequence (Q9Y6E0 whole entry): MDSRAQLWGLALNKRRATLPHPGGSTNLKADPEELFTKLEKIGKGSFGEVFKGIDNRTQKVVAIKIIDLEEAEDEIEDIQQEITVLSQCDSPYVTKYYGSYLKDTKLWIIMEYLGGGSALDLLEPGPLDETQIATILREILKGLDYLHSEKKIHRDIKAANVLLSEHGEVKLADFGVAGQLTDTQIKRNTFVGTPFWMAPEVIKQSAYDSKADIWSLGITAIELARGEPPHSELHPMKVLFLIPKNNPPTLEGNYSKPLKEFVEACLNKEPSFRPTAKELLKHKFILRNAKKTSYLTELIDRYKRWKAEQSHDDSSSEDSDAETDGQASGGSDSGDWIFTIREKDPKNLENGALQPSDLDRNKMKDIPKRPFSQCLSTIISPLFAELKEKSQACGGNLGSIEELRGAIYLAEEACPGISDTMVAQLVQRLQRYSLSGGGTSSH
HIPK3, sequence (Q9H422 whole entry): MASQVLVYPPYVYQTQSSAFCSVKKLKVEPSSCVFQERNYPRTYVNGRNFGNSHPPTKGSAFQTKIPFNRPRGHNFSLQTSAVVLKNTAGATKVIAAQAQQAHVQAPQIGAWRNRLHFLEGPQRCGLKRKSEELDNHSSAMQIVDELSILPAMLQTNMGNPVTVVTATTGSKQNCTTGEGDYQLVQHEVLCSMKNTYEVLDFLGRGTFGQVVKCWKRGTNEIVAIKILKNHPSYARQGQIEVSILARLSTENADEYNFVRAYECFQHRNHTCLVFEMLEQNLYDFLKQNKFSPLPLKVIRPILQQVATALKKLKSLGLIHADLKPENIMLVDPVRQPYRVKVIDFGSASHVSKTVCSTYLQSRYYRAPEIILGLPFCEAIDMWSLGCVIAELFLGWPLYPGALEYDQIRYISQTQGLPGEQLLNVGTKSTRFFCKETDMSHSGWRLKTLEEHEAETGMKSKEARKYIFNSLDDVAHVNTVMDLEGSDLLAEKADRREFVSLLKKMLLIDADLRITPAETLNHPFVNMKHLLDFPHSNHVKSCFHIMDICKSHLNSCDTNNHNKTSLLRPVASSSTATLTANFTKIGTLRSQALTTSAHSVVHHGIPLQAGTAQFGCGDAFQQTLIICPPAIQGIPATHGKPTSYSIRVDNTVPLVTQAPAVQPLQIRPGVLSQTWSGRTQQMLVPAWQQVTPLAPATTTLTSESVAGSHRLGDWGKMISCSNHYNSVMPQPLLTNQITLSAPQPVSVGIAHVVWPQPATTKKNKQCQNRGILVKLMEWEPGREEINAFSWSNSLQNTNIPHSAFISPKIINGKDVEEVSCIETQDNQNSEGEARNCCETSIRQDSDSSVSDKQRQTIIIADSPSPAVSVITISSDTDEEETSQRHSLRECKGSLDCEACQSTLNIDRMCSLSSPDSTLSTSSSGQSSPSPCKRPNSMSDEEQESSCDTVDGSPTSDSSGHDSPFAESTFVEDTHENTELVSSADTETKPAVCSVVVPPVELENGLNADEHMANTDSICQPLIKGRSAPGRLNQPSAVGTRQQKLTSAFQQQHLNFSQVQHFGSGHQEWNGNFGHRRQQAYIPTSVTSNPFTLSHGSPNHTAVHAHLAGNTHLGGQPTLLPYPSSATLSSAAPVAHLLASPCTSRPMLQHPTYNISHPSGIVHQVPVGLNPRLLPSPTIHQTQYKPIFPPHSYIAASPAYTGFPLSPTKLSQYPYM

`N=C(N)NCCC[C@@H](NC(=O)CCCCCNC(=O)Cn1cnc2c(I)c(I)c(I)c(I)c21)C(=O)N[C@H](CCCNC(=N)N)C(=O)N[C@H](CCCNC(=N)N)C(=O)N[C@H](CCCNC(=N)N)C(=O)N[C@H](CCCNC(=N)N)C(=O)N[C@H](CCCNC(=N)N)C(=O)N[C@H](CCCCN)C(N)=O` [ARC-3125, TIBI-CH2-C(=O)-Ahx-(D-Arg)6-D-Lys-NH2]: the remaining activity at 1 µM in [1] is 51 ± 24%; in data set [2], 120 ± 2%; in data set [3], 21%; in data set [4], 93%; in data set [5], 30 ± 2%; in [6], 32 ± 27%. Moreover, the values for the remaining activity at 1 µM in data set [7], in data set [8] and in [9] were 40 ± 4%, 7 ± 1% and 34 ± 11%, respectively.

For the compound `N=C(N)NCCC[C@@H](NC(=O)CCCCCNCc1nc2c(sc3cc(Br)cnc32)c(=O)[nH]1)C(=O)N[C@H](CCCNC(=N)N)C(=O)N[C@H](CCCNC(=N)N)C(=O)N[C@H](CCCNC(=N)N)C(=O)N[C@H](CCCNC(=N)N)C(=O)N[C@H](CCCNC(=N)N)C(=O)N[C@H](CCCCN)C(N)=O` [ARC-3126, BPTP-Ahx-(D-Arg)6-D-Lys-NH2] (X3-[dR][dR][dR][dR][dR][dR][dK]-NH2), the remaining activity at 1 µM stood at 102 ± 5% in data set [1]; 121 ± 5% in data set [2]; 93 ± 2% in data set [3]; 121 ± 11% in data set [4]; 8 ± 3% in data set [5]; 100 ± 6% in data set [6]. The results for the remaining activity at 1 µM in [7], in data set [8] and in data set [9] were 50 ± 16%, 13% and 103 ± 5%, respectively.

Turning to `N=C(N)NCCC[C@@H](NC(=O)CNC(=O)[C@@H](CCCNC(=N)N)NC(=O)[C@@H](CCCNC(=N)N)NC(=O)CCCCCCCNCc1nc2c(sc3cc(Br)cnc32)c(=O)[nH]1)C(=O)N[C@H](CCCCN)C(N)=O` [Compound 1, BPTP-Aoc-(D-Arg)2-Gly-D-Arg-D-Lys-NH2], the remaining activity at 1 µM in data set [1] was 104 ± 3%; in data set [2] it was 92%; in [3], 116 ± 15%; in data set [4] it was 99%; in [5], 77 ± 9%; in [6] it was 93 ± 4%. Further, the results for the remaining activity at 1 µM in data set [7], in [8] and in data set [9] were 99 ± 1%, 17% and 119 ± 8%, respectively.

As to `N=C(N)NCCC[C@@H](NC(=O)CNC(=O)[C@@H](CCCNC(=N)N)NC(=O)[C@@H](CCCNC(=N)N)NC(=O)CCCCCCCNCc1nc2c(sc3ccc(Br)cc32)c(=O)[nH]1)C(=O)N[C@H](CCCCN)C(N)=O` [Compound 2, BBTP-Aoc-(D-Arg)2-Gly-D-Arg-D-Lys-NH2], the remaining activity at 1 µM is 112 ± 8% in data set [1]; 108 ± 3% in data set [2]; 72 ± 12% in data set [3]; 102 ± 5% in [4]; 63 ± 12% in data set [5]; 94 ± 1% in data set [6]. Moreover, the remaining activity at 1 µM in data set [7] stood at 99 ± 1%; in [8] it was 4 ± 1%; in data set [9], 110 ± 15%.

Regarding `N=C(N)NCCC[C@@H](NC(=O)CNC(=O)[C@@H](CCCNC(=N)N)NC(=O)[C@@H](CCCNC(=N)N)NC(=O)Cn1cc(CNCc2nc3c(sc4ccc(Br)cc43)c(=O)[nH]2)nn1)C(=O)N[C@H](CCCCN)C(N)=O` [Compound 3, BBTP-Amt-(D-Arg)2-Gly-D-Arg-D-Lys-NH2], the remaining activity at 1 µM in data set [1] amounted to 98 ± 1%; in data set [2], 113 ± 22%; in data set [3], 57 ± 7%; in data set [4], 101 ± 2%; in data set [5], 57 ± 7%; in [6] it was 92 ± 6%. Moreover, the remaining activity at 1 µM in data set [7] stood at 97 ± 7%; in data set [8], 6%; in data set [9], 86 ± 8%.
